Assay results published in US20210163606A1 (ATYR PHARMA, published 2021).

Target: T1, mouse NRP2 I407V on transfected Expi293 cells (Mouse, UniProt O35375 21-931)
T1 construct: whole, on cells
T1 sequence (looked up): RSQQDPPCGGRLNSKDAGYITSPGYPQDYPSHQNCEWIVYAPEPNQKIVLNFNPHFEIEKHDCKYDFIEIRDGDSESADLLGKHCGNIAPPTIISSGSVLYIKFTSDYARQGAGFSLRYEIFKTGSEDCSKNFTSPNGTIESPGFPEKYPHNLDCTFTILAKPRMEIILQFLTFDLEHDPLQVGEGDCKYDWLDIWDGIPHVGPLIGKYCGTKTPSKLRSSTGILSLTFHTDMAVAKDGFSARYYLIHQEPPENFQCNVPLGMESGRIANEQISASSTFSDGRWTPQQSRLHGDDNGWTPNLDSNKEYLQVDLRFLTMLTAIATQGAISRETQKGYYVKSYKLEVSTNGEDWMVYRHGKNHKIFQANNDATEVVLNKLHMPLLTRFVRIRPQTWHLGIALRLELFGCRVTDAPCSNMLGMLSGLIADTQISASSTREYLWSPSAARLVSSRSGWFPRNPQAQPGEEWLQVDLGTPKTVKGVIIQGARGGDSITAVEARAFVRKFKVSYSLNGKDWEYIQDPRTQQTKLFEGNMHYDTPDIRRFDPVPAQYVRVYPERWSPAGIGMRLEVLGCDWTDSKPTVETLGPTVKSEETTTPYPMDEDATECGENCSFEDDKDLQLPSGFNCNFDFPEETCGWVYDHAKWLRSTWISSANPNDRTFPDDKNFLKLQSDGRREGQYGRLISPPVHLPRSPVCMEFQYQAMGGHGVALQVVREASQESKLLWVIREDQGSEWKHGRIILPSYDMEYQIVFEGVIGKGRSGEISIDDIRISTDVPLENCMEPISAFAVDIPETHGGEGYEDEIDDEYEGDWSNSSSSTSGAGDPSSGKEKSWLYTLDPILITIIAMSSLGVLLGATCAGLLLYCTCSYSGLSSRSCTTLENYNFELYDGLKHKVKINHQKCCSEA
Assay: flow cytometry, aNRP2-10v10 at 10 nM on transfected Expi293 cells gated on live, single, NRP2 expressing cells [panel 11B]
Method: FIGS. 11A-11B show the measurement of antibody binding to Expi293 cells over-expressing NRP2. […] Gating for NRP2 over-expressing cells is shown.
Human NRP2a (version 2; see Table N1) and mouse NRP2v2 cDNAs were obtained from Origene. […] Human and mouse NRP2, expression vectors, along with expression vectors encoding all 6 mutants were transfected into Expi293 cells at 1 million cells/mL, by standard techniques. Approximately 40 hours post transfection cells were co-stained with aNRP2-10v10, and a species agnostic anti-NRP2 a1 specific binding antibody.

B1: aNRP2-10v10 (antibody, V domains shown)
VH: EVQLVQSGAEVKKPGATVKISCKVSGFNIKDYYVHWVQQAPGKGLEWMGRIDVEDDETKYAPKFQGRVTITADTSTDTAYMELSSLRSEDTAVYYCATPIYGAREAWFAYWGQGTLVTVSS
VL: DIQMTQSPSSLSASVGDRVTITCTASSSVSSSYLHWYQQKPGKAPKLLIYRTSNLASGVPSRFSGSGSGTDFTLTISSLQPEDFATYYCHQYYRSPPTFGGGTKVEIK
Q: Does B1 bind?
A: Result: no binding (tested: 10 nM)
